According to US8158585B2, “Cross-β structure comprising amyloid-binding proteins and methods for detection of the cross-β structure, for modulating cross-β structures fiber formation and modulating cross-β structure-mediated toxicity” (CrossBeta Biosciences B.V., priority 2002, dated 2012):
Where no end group is shown, it is not given here.

B1: RPTPμ-GST: extracellular domain of receptor-like protein tyrosine phosphatase μ with GST tag, control (protein, UniProt P28827 21-742, looked up)
extracellular domain: ETFSGGCLFDEPYSTCGYSQSEGDDFNWEQVNTLTKPTSDPWMPSGSFMLVNASGRPEGQRAHLLLPQLKENDTHCIDFHYFVSSKSNSPPGLLNVYVKVNNGPLGNPIWNISGDPTRTWNRAELAISTFWPNFYQVIFEVITSGHQGYLAIDEVKVLGHPCTRTPHFLRIQNVEVNAGQFATFQCSAIGRTVAGDRLWLQGIDVRDAPLKEIKVTSSRRFIASFNVVNTTKRDAGKYRCMIRTEGGVGISNYAELVVKEPPVPIAPPQLASVGATYLWIQLNANSINGDGPIVAREVEYCTASGSWNDRQPVDSTSYKIGHLDPDTEYEISVLLTRPGEGGTGSPGPALRTRTKCADPMRGPRKLEVVEVKSRQITIRWEPFGYNVTRCHSYNLTVHYCYQVGGQEQVREEVSWDTENSHPQHTITNLSPYTNVSVKLILMNPEGRKESQELIVQTDEDLPGAVPTESIQGSTFEEKIFLQWREPTQTYGVITLYEITYKAVSSFDPEIDLSNQSGRVSKLGNETHFLFFGLYPGTTYSFTIRASTAKGFGPPATNQFTTKISAPSMPAYELETPLNQTDNTVTVMLKPAHSRGAPVSVYQIVVEEERPRRTKKTTEILKCYPVPIHFQNASLLNSQYYFAAEFPADSLQAAQPFTIGDNKTYNGYWNTPLLPYKSYRIYFQAASRANGETKIDCVQVATKGAATPKPVPEPEKQTDHTVK
modifications: extracellular domain GST tag
notes: extracellular domain of receptor-like protein tyrosine phosphatase μ with GST tag, control
B2: plasmin: activated plasminogen (protein)
chain: KVYLSECKTGNGKNYRGTMSKTKNGITCQKWSSTSPHRPRFSPATHPSEGLEENYCRNPDNDPQGPWCYTTDPEKRYDYCDILECEEECMHCSGENYDGKISKTMSGLECQAWDSQSPHAHGYIPSKFPNKNLKKNYCRNPDRELRPWCFTTDPNKRWELCDIPRCTTPPPSSGPTYQCLKGTGENYRGNVAVTVSGHTCQHWSAQTPHTHNRTPENFPCKNLDENYCRNPDGKRAPWCHTTNSQVRWEYCKIPSCDSSPVSTEQLAPTAPPELTPVVQDCYHGDGQSYRGTSSTTTTGKKCQSWSSMTPHRHQKTPENYPNAGLTMNYCRNPDADKGPWCFTTDPSVRWEYCNLKKCSGTEASVVAPPPVVLLPDVETPSEEDCMFGNGKGYRGKRATTVTGTPCQDWAAQEPHRHSIFTPETNPRAGLEKNYCRNPDGDVGGPWCYTTNPRKLYDYCDVPQCAAPSFDCGKPQVEPKKCPGRVVGGCVAHPHSWPWQVSLRTRFGMHFCGGTLISPEWVLTAAHCLEKSPRPSSYKVILGAHQEVNLEPHVQEIEVSRLFLEPTRKDIALLKLSSPAVITDKVIPACLPSPNYVVADRTECFITGWGETQGTFGAGLLKEAQLPVIENKVCNRYEFLNGRVQSTELCAGHLAGGTDSCQGDSGGPLVCFEKDKYILQGVTSWGLGCARPNKPGVYVRVSRFVTWIEGVMRNN

How the values were obtained:
[1] = molecular target: T1, albumin-g6p (Bos taurus, UniProt P02769); test: ELISA: binding of tPA-F-GST and RPTPμ-GST to glycated albumin; set-up: species or system bovine; details: detection with anti-GST 2F3
T1 construct: Bovine serum albumin (BSA) fraction V pH 7.0; host or cells: bovine serum, fraction V
T1 sequence (P02769 25-607): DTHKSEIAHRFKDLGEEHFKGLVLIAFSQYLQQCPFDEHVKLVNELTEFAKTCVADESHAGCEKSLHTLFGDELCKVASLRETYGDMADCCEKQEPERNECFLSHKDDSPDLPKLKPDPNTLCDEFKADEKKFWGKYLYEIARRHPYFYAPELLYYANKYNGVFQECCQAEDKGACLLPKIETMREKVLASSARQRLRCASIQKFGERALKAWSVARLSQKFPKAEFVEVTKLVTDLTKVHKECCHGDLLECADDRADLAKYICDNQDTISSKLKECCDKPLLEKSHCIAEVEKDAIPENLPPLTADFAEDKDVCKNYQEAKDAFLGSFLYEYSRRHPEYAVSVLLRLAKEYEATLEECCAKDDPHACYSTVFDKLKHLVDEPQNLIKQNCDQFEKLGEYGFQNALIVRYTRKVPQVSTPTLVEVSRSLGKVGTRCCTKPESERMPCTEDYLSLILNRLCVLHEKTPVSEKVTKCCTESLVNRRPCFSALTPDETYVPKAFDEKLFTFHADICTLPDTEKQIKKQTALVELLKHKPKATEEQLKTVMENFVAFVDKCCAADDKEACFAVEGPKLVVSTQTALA
Experimental: (§1) Binding of tPA-F-GST and RPTPμ-GST to fibrous amyloids human Aβ (1-40) and albumin-[…] was assayed with an ELISA. In brief, human Aβ (1-40), albumin-[…], or buffer only, were coated on a peptide I Immobilizer or a protein I Immobilizer, respectively. Wells were incubated with the purified GST-tagged constructs or control medium and binding was detected using primary anti-GST monoclonal antibody 2F3 and RAMPO. The wells were also incubated with […] of tPA in the presence of 10 mM of εACA. Binding of tPA is independent of the lysyl binding site located at the kringle 2 domain. Binding of tPA was measured using primary antibody 374B and RAMPO. Experiments were performed in triplicate and blank readings of non-coated wells were substracted.

[2] = molecular target: T2, Aβ fibrils (Homo sapiens, UniProt P05067); test: Amyloid pull-down with insoluble Aβ fibers; format: binding; details: conditioned BHK medium
T2 construct: Peptide Aβ (1-40), containing amino acids as present in the described human Alzheimer peptide; purchased Pepscan, Inc. (The Netherlands) or peptide synthesis facility at the Netherlands Cancer Institute; host or cells: synthetic peptide
T2 sequence (P05067 672-711): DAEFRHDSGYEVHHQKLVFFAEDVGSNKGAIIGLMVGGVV
Experimental: Conditioned medium of BHK cells expressing GST-tagged tPA F, F-EGF, EGF, K1, F-EGF-K1, FXII F, HGFa F, Fn F4, Fn F5, Fn F4-5 and GST was used for amyloid binding assays. At first, constructs were adjusted to approximately equal concentration using Western blots. Qualitative binding of the recombinant fragments were evaluated using a “pull-down” assay. To this end, the recombinantly made fragments were incubated with either Aβ or IAPP fibrils. Since these peptides form insoluble fibers, unbound proteins can be easily removed from the fibers following centrifugation. The pellets containing the bound fragments were subsequently washed several times. Bound fragments were solubilized in SDS-sample buffer and analyzed by PAGE, as were unbound proteins in the supernatant fraction and starting material. The gels were analyzed using immunoblotting analysis with the anti-GST antibody Z-5.

[3] = molecular target: Aβ (1-40) (Homo sapiens, UniProt P05067); test: ELISA: binding of tPA-F-GST and RPTPμ-GST to human Aβ (1-40); set-up: Peptide Aβ (1-40), containing amino acids as present in the described human Alzheimer peptide; purchased Pepscan, Inc. (The Netherlands) or peptide synthesis facility at the Netherlands Cancer Institute; host or cells: synthetic peptide; details: detection with anti-GST 2F3
Sequence of Aβ (1-40) (P05067 672-711): as above
Experimental: as §1

[4] = molecular target: T3, tPA (Homo sapiens, UniProt P00750); test: ELISA: binding of tPA to glycated albumin and Hb; details: g6p-glycated protein immobilized
T3 construct: purchased Boehringer-Ingelheim (Germany)
T3 sequence (P00750 36-562): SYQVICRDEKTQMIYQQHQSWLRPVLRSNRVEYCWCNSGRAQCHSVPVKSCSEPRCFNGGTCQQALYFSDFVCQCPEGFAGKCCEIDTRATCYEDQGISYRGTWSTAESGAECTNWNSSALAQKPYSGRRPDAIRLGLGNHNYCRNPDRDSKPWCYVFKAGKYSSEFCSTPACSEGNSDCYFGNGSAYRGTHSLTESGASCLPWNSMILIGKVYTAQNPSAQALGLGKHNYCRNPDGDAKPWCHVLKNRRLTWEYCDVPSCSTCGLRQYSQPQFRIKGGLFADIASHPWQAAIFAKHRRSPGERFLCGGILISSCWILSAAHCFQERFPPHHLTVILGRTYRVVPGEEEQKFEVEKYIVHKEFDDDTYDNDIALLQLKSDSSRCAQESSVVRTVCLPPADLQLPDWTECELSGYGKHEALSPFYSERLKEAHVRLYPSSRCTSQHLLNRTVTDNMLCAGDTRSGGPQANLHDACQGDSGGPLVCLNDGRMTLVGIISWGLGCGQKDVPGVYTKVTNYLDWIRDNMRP
Experimental: Binding of tPA to albumin-g6p (four-week and 23-week incubations), albumin-glyceraldehyde, control albumin, human Hb-g6p (ten-week incubation), Hb control, or to Aβ (1-40) was tested using an enzyme-linked immunosorbent assay (ELISA) set-up. Albumin-g6p and control albumin (2.5 μg ml^−1 in coat buffer, 50 mM Na2CO3/NaHCO3 pH 9.6, 0.02% m/v NaN3, 50 μl/well) were immobilized for one hour at room temperature in 96-well protein Immobilizer plates (Exiqon, Vedbaek, Denmark). Aβ (1-40) (10 μg ml^−1 in coat buffer) was immobilized for 75 minutes at room temperature in a 96-well peptide Immobilizer plate (Exiqon, Vedbaek, Denmark). Control wells were incubated with coat buffer only. After a wash step with 200 μl of PBS/0.1% v/v Tween 20, plates were blocked with 300 μl of PBS/1% v/v Tween 20, for two hours at room temperature while shaking. All subsequent incubations were performed in PBS/0.1% v/v Tween 20 for one hour at room temperature while shaking, with volumes of 50 μl per well. After each incubation, wells were washed five times with 200 μl of PBS/0.1% v/v Tween 20. Increasing amounts of f.l. tPA or K2-P tPA was added in triplicate to coated wells and to control wells. […] Absorbance was read at 490 nm on a Vmax kinetic microplate reader (Molecular Devices, Sunnyvale, Calif., USA).

[5] = molecular target: T4, Aβ (Homo sapiens, UniProt P05067); test: Solid-phase binding ELISA of tPA, plasminogen and plasmin to coated Aβ; details: 50 mM ε-aminocaproic acid
T4 construct: Peptide Aβ (1-40), containing amino acids as present in the described human Alzheimer peptide; purchased Pepscan, Inc. or peptide synthesis facility of the Netherlands Cancer Institute; host or cells: chemical synthesis
T4 sequence (P05067 672-711): as the sequence (P05067 672-711) above
Experimental: FIG. 3 is a set of graphs depicting binding of tPA, plasminogen and plasmin to Aβ. Aβ was coated onto plastic 96-well plates. Increasing concentrations of either (A) tPA or (B) plasmin(ogen) were allowed to bind to the immobilized peptide. After extensive washing, tPA and plasmin(ogen) binding was assessed by enzyme-linked immunosorbent assays using anti-tPA and anti-plasminogen antibodies. Binding of (C) tPA and (D) plasmin to Aβ in the presence of 50 mM ε-aminocaproic acid (ε-ACA) was assessed as in A and B.
To test whether tPA, plasminogen and plasmin bind Aβ, solid-phase binding assays were performed. Aβ was coated onto plastic 96-well plates and binding of the peptide to either plasmin(ogen) or to tPA was assessed by overlaying the coated peptide with increasing concentrations of either tPA, plasminogen or plasmin. Binding was assessed using specific antibodies to either plasmin(ogen) or to tPA by performing ELISA. […] However, activated plasminogen (plasmin) does bind to Aβ and does so with a kD of 47 nM. […] To test this, use was made of the lysine analogue ε-aminocaproic acid (εACA) and binding of plasmin and tPA to Aβ was tested in its presence. […] In contrast, εACA has no effect on the tPA-Aβ interaction (FIG. 3, Panel C). Thus, it was concluded that plasmin binds to free lysines that were generated during the incubation period, presumably via its lysine-binding Kringle domain(s). In line with this, the kD of plasminogen Kringle domain binding to free lysines in fibrin is similar to the kD for plasmin binding to Aβ.

[6] = test system: differentiated N1E-115 cells; test: N1E-115 cell detachment (methylene blue staining); format: cell-based, mouse; details: plasmin added with Aβ (25 μM), 48 hours
Experimental: FIG. 4 is a set of graphs illustrating stimulation of tPA-mediated plasmin formation by Aβ and synergistic stimulation of cell detachment by plasminogen and Aβ. Panel A depicts that plasminogen (200 μg/ml) and tPA (200 pM) were incubated with Aβ (5 μM) or control buffer. Samples were taken from the reaction mixture at the indicated periods of time and plasmin activity was measured by conversion of the chromogenic plasmin substrate S-2251 at 405 nm. […] After 48 hours, the dead cells were washed away and the remaining adherent cells were stained with methylene blue. Plasmin cannot prevent Aβ-induced cell detachment. Panel C illustrates that N1E-115 cells were differentiated and received the indicated concentrations of plasminogen in the presence or absence of 10 μM Aβ. After 24 hours, cell detachment was assessed. […] Panel D is an immunoblot analysis of plasmin formation and laminin degradation. Differentiated N1E-115 cells were treated with or without Aβ (10 μM) in the absence or presence of added plasminogen. Addition of Aβ results in the formation of plasmin (bottom panel) and in degradation of laminin (top panel).
FIG. 5 depicts graphs illustrating that carboxypeptidase B inhibits Aβ-stimulated tPA-mediated plasmin formation and cell detachment. […] Samples were taken from the reaction mixture at the indicated periods of time and plasmin activity was measured by conversion of the chromogenic plasmin substrate S-2251 at 405 nm. The reaction was performed in the absence or the presence of 50 μg ml^−1 carboxypeptidase B (CpB) and in the absence or presence of 3.5 μM carboxypeptidase inhibitor (CPI). CpB greatly attenuates A-stimulated plasmin formation. […] After 24 hours, the cells were photographed. Panel C illustrates that, subsequently, the cells were washed once with PBS and the remaining cells were quantified as percentage-adhered cells by methylene blue staining. In Panel D, the cells were treated as in Panels B and C and medium and cell fractions were collected and analyzed by Western blot using an anti-plasmin(ogen) antibody. Aβ stimulates plasmin formation that is inhibited by CpB.
N1E-115 mouse neuroblastoma cells were routinely cultured in DMEM containing 5% FCS, supplemented with antibiotics. Cells were differentiated into post-mitotic neurons.^52 The cells were exposed to Aβ (50 μg ml^−1) for 24 hours in the presence or absence of 20 μg ml^−1 plasminogen in the presence or absence of 50 μg ml^−1 CpB. Cells were photographed, counted and lysed by the addition of 4× sample buffer (250 mM Tris pH 6.8, 8% SDS, 10% glycerol, 100 mM DTT, 0.01% w/v bromophenol blue) to the medium. The lysate, containing both adherent and floating (presumably dying and/or dead) cells, as well as the culture medium, were analyzed for the presence of plasminogen and plasmin, as well as for laminin, by Western blot analysis using specific antibodies against plasminogen (MoAb 3642, American Diagnostics), laminin (PoAb L9393, Sigma).

Molecule | binding of GST-tagged construct to albumin-g6p [1] | binding of GST-tagged construct to human Aβ (1-40) [3] | further results
tPA-F-GST: amino-terminal finger domain (F) of human tPA, residues Ser1-Ser50, with GST tag (SYQVICRDEKTQMIYQQHQSWLRPVLRSNRVEYCWCNSGRAQCHSVPVKS-{GST}; cysteine pairing not given here) | bound | bound | binding to Aβ fibers (pull-down, Western blot) [2]: Efficient binding
Hb-g6p: human hemoglobin incubated with glucose-6-phosphate | – | – | tPA binding [4]: high-affinity tPA binding
B1 | no binding | no binding | –
B2 | – | – | binding to Aβ in the presence of εACA [5]: completely abolished; effect on Aβ-induced cell detachment [6]: unable to ameliorate
